Data set [1] concerns the target T1, PDL1 (CD274, B7-H1) (Homo sapiens, UniProt Q9NZQ7 Q9NZQ7:19-238). The data set can be described thus: competition; ED50 for blocking PD-1:PDL1, ELISA. How it is done:
Identification of Antagonistic PDL1 Aptamers Using an ELISA-Based Competition Assay To investigate the efficacy of candidate PDL1 aptamers as antagonistic agents, ELISA-based competition assay was performed. Human PDL1 recombinant protein (2 µg/ml) was coated onto wells of 96-well ELISA plates and blocked by BSA (10 mg/ml). Human PD-1 protein (0.6 µg/ml) and aptamer (500 nmole/l) were added into wells simultaneously. After washing away unbound human PD-1 protein, PD-1 protein which remained in wells was detected by HRP-labeled anti-human IgG antibody. TMB was used as HRP substrate for color development and absorbance at 652 nm was detected by ELISA plate reader. Remained human PD-1 protein amount was quantified using standard curve which built by serial diluted human PD-1 protein. Wells without PDL1 coating were used as negative control.
To further investigate 50% effective dose of AP14 and AP32 as PDL1 blocking agents, serial diluted AP14 and AP32 ranged from 12.5 nmole/l to 500 nmole/l were used in previously mentioned ELISA-based competition assay.
A general note: ELISA stands for enzyme-linked immunosorbent assay.

The target of data set [2] is T1, PDL1 (CD274, B7-H1). The data set can be described thus: filter; passed cut-off of 5 for PDL1/BSA signal, qPCR. How it is done: Evaluation of the Relative Binding Ability of Candidate PDL1 Aptamers Using Nitrocellulose Filter Binding Assay The sequences of candidate PDL1 targeting aptamers were ranked by output reads from next-generation sequencing and sequences with output reads over 100 were analyzed. Among them, top 50 candidate aptamer sequences accounted for over 85% output reads. To evaluate their binding abilities toward PDL1, these top 50 candidate aptamers were synthesized and analyzed by nitrocellulose filter binding assay. The binding abilities toward BSA were used as negative control. In brief, candidate aptamer was incubated with PDL1 or BSA, respectively. Aptamer-protein complexes were collected by nitrocellulose filter and eluted by heating. The number of eluted aptamer was quantified by quantitative PCR and normalized by dividing the signal from PDL1 group to signal from BSA group. In order to find out the PDL1 aptamer with higher specificity, the cut-off value was set at 5.

Data set [3] concerns the target PDL1 (CD274) on CT26 cells (Mus musculus, UniProt Q9EP73 Q9EP73:19-290). The experiment in a line: flow; apparent Kd on CT26 cells. The note with it: tags: endogenous, CT26 colorectal cancer cells; label: fluorescent dye (not specified).
Data set [4] addresses PDL1 (CD274) on LL/2 cells (Mus musculus, UniProt Q9EP73 Q9EP73:19-290). The data set can be described thus: flow; apparent Kd on LL/2 cells. The note with it: tags: endogenous, LL/2 lung carcinoma cells; label: fluorescent dye (not specified).
Where [5] appears, read: Mfold-predicted long terminal stem and two short stem loops.

Where two headings read alike, the source gives them in different places.

As a reminder, the EC50 is the midpoint of the concentration-response curve.

T1 sequence (Q9NZQ7 19-238, one chain of several): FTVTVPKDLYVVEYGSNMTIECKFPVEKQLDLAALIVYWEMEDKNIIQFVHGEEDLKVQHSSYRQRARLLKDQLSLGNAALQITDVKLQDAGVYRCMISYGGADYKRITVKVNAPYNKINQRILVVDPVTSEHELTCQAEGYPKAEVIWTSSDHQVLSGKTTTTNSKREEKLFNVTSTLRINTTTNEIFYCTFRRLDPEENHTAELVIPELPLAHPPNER
Chain of PDL1 (CD274) on CT26 cells (Q9EP73 19-290, one chain of several): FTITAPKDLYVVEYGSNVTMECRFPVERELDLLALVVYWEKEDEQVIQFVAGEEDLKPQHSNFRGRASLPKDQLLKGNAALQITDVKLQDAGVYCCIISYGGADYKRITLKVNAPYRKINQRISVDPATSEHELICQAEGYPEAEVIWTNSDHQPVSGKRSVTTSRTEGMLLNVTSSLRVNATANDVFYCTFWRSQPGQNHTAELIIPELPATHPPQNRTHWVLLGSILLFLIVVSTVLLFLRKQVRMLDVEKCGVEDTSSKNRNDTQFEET
Chain of PDL1 (CD274) on LL/2 cells (Q9EP73 19-290, one chain of several): as above

B1: AP32 (62-nt) (ssDNA)
DNA: TCCCTACGGCGCTAACACATCAACTTGATAGACAACTGCGTCCACTGCCACCGTGCTACAAC
B1: in the data set with PDL1 (CD274, B7-H1) [1] (setting [5]), the EC50 is 12 nM. Also, the binding signal in the data set with PDL1 (CD274, B7-H1) [2] (setting [5]) is above 5 fold over BSA.

B2: AP14 (ssDNA)
DNA: TCCCTACGGCGCTAACCACTCAATAATTCCACTGCTACATACGTTTGCCACCGTGCTACAAC
The molecule B2 showed an EC50 with PDL1 (CD274, B7-H1) [1] of 41 nM. The same molecule came in with a binding signal with PDL1 (CD274, B7-H1) [2] above 5 fold over BSA.

B3: AP36 (ssDNA)
DNA: TCCCTACGGCGCTAACCATGTTTTCGAAAGACAATCCGCTGCCCTGGCCACCGTGCTACAAC
As for B3, the binding signal with PDL1 (CD274, B7-H1) [2] is above 5 fold over BSA.

B4: AP33 (ssDNA)
DNA: TCCCTACGGCGCTAACCATCTGGTACCTTACGACGCTTCATCTCCCGCCACCGTGCTACAAC
Regarding B4, the binding signal with PDL1 (CD274, B7-H1) [2] is above 5 fold over BSA.

B5: AP22 (ssDNA)
DNA: TCCCTACGGCGCTAACAAACTAGGGTCCATTTGTGTACCTGCGAGCCACCGTGCTACAAC
For B5, the binding signal with PDL1 (CD274, B7-H1) [2] was above 5 fold over BSA.

B6: aptPDL1 fluorescently labeled (ssDNA)
DNA: ACGGGCCACATCAACTCATTGATAGACAATGCGTCCACTGCCCGT
Regarding B6, the Kd in data set [3] was around 250 nM; in data set [4], around 155 nM.

B7: AP48 (ssDNA)
DNA: TCCCTACGGCGCTAACCATGTTCCTTTCGTTCTGCCTTTTCCTTCCGCCACCGTGCTACAAC
Take B7: the binding signal with PDL1 (CD274, B7-H1) [2] was above 5 fold over BSA.

(Values after patent US10584341, “Antagonistic PDL1 aptamers and their applications in cancer therapy” (Academia Sinica).)
